Test results published in patent US20190100597A1 (IGM BIOSCIENCES, published 2019).

T1: human CD20 on CD20-expressing cell lines (human, UniProt P11836 1-297)
T1 sequence: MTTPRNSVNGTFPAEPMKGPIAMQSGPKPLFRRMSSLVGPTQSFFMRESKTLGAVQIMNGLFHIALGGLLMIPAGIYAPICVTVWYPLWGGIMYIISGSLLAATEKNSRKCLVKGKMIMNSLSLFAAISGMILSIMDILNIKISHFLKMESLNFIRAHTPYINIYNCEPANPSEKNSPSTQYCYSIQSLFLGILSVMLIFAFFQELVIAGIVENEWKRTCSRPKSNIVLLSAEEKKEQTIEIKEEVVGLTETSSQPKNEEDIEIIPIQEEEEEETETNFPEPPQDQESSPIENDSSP


Assays:
Assay in all cases: cell-based or functional assay
[1] = target: T1, human CD20 on CD20-expressing cell lines
[2] = target: T1, human CD20 on CD20-expressing cell lines; remark: listed apart in the source
[3] = target: T1, human CD20 on CD20-expressing cell lines; remark: listed apart in the source
[4] = target: T1, human CD20 on CD20-expressing cell lines; remark: listed apart in the source

CDC EC50 on DOHH-2 cells [3] [nM] | CDC EC50 on Z-138 cells [3] [nM] | CDC (IC50) on Raji cells [4] [µg/mL] | Binder | T-cell directed B-cell killing, LDH release, EC50 on DB cells (molar) [1] [nM] | T-cell directed B-cell killing, LDH release, EC50 on DB cells [2] [µg/mL] | T-cell directed B-cell killing, LDH release, EC50 on DOHH2 cells [2] [µg/mL] | T-cell directed B-cell killing, LDH release, EC50 on Z-138 cells [2] [µg/mL] | KILR cytotoxicity assay, potency relative to the 1.5.3 IgM antibodies [1] [fold less potent]
 |  |  | 1.5.3 IgM+V15J (bispecific anti-CD20 x anti-CD3 IgM pentamer) (bispecific antibody) heavy: EVQLVQSGAEVKKPGESLKISCKGSGYSFTSYWIGWVRQMPGKGLEWMGIIYPGDSDTRYSPSFQGQVTISADKSITTAYLQWSSLKASDTAMYYCARHPSYGSGSPNFDYWGQGTLVTVSSGSASAPTLFPLVSCENSPSDTSSVAVGCLAQDFLPDSITFSWKYKNNSDISSTRGFPSVLRGGKYAATSQVLLPSKDVMQGTDEHVVCKVQHPNGNKEKNVPLPVIAELPPKVSVFVPPRDGFFGNPRKSKLICQATGFSPRQIQVSWLREGKQVGSGVTTDQVQAEAKESGPTTYKVTSTLTIKESDWLSQSMFTCRVDHRGLTFQQNASSMCVPDQDTAIRVFAIPPSFASIFLTKSTKLTCLVTDLTTYDSVTISWTRQNGEAVKTHTNISESHPNATFSAVGEASICEDDWNSGERFTCTVTHTDLPSPLKQTISRPKGVALHRPDVYLLPPAREQLNLRESATITCLVTGFSPADVFVQWMQRGQPLSPEKYVTSAPMPEPQAPGRYFAHSILTVSEEEWNTGETYTCVVAHEALPNRVTERTVDKSTGKPTLYNVSLVMSDTAGTCY light: not shown not shown | 0.0004 | 0.0004 | 0.012 | 0.033 | 
 |  |  | Rituxan IgM+V15J (bispecific anti-CD20 x anti-CD3 IgM pentamer) (bispecific antibody) heavy: QVQLQQPGAELVKPGASVKMSCKASGYTFTSYNMHWVKQTPGRGLEWIGAIYPGNGDTSYNQKFKGKATLTADKSSSTAYMQLSSLTSEDSAVYYCARSTYYGGDWYFNVWGAGTTVTVSSGSASAPTLFPLVSCENSPSDTSSVAVGCLAQDFLPDSITFSWKYKNNSDISSTRGFPSVLRGGKYAATSQVLLPSKDVMQGTDEHVVCKVQHPNGNKEKNVPLPVIAELPPKVSVFVPPRDGFFGNPRKSKLICQATGFSPRQIQVSWLREGKQVGSGVTTDQVQAEAKESGPTTYKVTSTLTIKESDWLSQSMFTCRVDHRGLTFQQNASSMCVPDQDTAIRVFAIPPSFASIFLTKSTKLTCLVTDLTTYDSVTISWTRQNGEAVKTHTNISESHPNATFSAVGEASICEDDWNSGERFTCTVTHTDLPSPLKQTISRPKGVALHRPDVYLLPPAREQLNLRESATITCLVTGFSPADVFVQWMQRGQPLSPEKYVTSAPMPEPQAPGRYFAHSILTVSEEEWNTGETYTCVVAHEALPNRVTERTVDKSTGKPTLYNVSLVMSDTAGTCY light: QIVLSQSPAILSASPGEKVTMTCRASSSVSYIHWFQQKPGSSPKPWIYATSNLASGVPVRFSGSGSGTSYSLTISRVEAEDAATYYCQQWTSNPPTFGGGTKLEIKRTVAAPSVFIFPPSDEQLKSGTASVVCLLNNFYPREAKVQWKVDNALQSGNSQESVTEQDSKDSTYSLSSTLTLSKADYEKHKVYACEVTHQGLSSPVTKSFNRGEC not shown |  | 0.0005 | 0.013 | 0.03 | 
4.6 | > 100 |  | 1.5.3 IgG (IgG1) (antibody, V domains shown) VH: EVQLVQSGAEVKKPGESLKISCKGSGYSFTSYWIGWVRQMPGKGLEWMGIIYPGDSDTRYSPSFQGQVTISADKSITTAYLQWSSLKASDTAMYYCARHPSYGSGSPNFDYWGQGTLVTVSS VL: not shown |  |  |  |  | 
22 | > 100 | > 50 | rituximab (IgG1) (antibody, V domains shown) VH: QVQLQQPGAELVKPGASVKMSCKASGYTFTSYNMHWVKQTPGRGLEWIGAIYPGNGDTSYNQKFKGKATLTADKSSSTAYMQLSSLTSEDSAVYYCARSTYYGGDWYFNVWGAGTTVTVSA VL: QIVLSQSPAILSASPGEKVTMTCRASSSVSYIHWFQQKPGSSPKPWIYATSNLASGVPVRFSGSGSGTSYSLTISRVEAEDAATYYCQQWTSNPPTFGGGTKLEIKR |  |  |  |  | ≥ 30
